In article PMC3406060:

Assays:
[1] = target: IRA homodimer (IRA-Luc/IRA-YFP) (UniProt P06213)
[2] = target: IRB homodimer (IRB-Luc/IRB-YFP) (UniProt P06213)
[3] = target: IRA/IGF1R hybrid receptor (IRA-Luc/IGF1R-YFP) (UniProt P06213)
[4] = target: IRB/IGF1R hybrid receptor (IRB-Luc/IGF1R-YFP) (UniProt P06213)
[5] = target: IRA homodimer (IRA-Luc/IRA-YFP) (UniProt P06213); remark: listed apart in the source
[6] = target: IRB homodimer (IRB-Luc/IRB-YFP) (UniProt P06213); remark: listed apart in the source
[7] = target: IRA/IGF1R hybrid receptor (IRA-Luc/IGF1R-YFP) (UniProt P06213); remark: listed apart in the source
[8] = target: IRB/IGF1R hybrid receptor (IRB-Luc/IGF1R-YFP) (UniProt P06213); remark: listed apart in the source
[9] = target: insulin receptor (IR), endogenous in MCF-7 and MDA-MB231 cells (human (endogenous in MCF-7 and MDA-MB231)) (UniProt P06213)

Substance | EC50 of ligand-induced BRET (Luc/YFP on the two ß-subunits) of partially purified receptors, series with M1 and M2 [1] | EC50 of ligand-induced BRET (Luc/YFP on the two ß-subunits) of partially purified receptors, series with M1 and M2 [2] | EC50 of ligand-induced BRET (Luc/YFP on the two ß-subunits) of partially purified receptors, series with M1 and M2 [3] | EC50 of ligand-induced BRET (Luc/YFP on the two ß-subunits) of partially purified receptors, series with M1 and M2 [4] | EC50 of ligand-induced BRET (Luc/YFP on the two ß-subunits) of partially purified receptors [5] | EC50 of ligand-induced BRET (Luc/YFP on the two ß-subunits) of partially purified receptors [6] | EC50 of ligand-induced BRET (Luc/YFP on the two ß-subunits) of partially purified receptors [7] | EC50 of ligand-induced BRET (Luc/YFP on the two ß-subunits) of partially purified receptors [8] | EC50 of PIP3 production (BRET, Luc-Akt-PH and membrane YFP) in living MDA-MB231 cells [9]
Glargine metabolite M1 (A21Gly-insulin) (ligand) | 16.7 nM | 9.64 nM | 225 nM | 147 nM |  |  |  |  | 
IGF1 (from UniProt P05019 49-118) (ligand) | 50.6 nM | 130 nM | 4.23 nM | 3.05 nM | 34.4 nM | 50 nM | 3.01 nM | 2.87 nM | 
glulisine (B3Lys,B29Glu-insulin) (ligand) |  |  |  |  | 1.61 nM | 1.64 nM | 183 nM | 107 nM | 0.84 nM

Continued, values first:

EC50 of ligand-induced BRET (Luc/YFP on the two ß-subunits) of partially purified receptors, series with M1 and M2 [1] | EC50 of ligand-induced BRET (Luc/YFP on the two ß-subunits) of partially purified receptors, series with M1 and M2 [2] | EC50 of ligand-induced BRET (Luc/YFP on the two ß-subunits) of partially purified receptors, series with M1 and M2 [3] | EC50 of ligand-induced BRET (Luc/YFP on the two ß-subunits) of partially purified receptors, series with M1 and M2 [4] | EC50 of ligand-induced BRET (Luc/YFP on the two ß-subunits) of partially purified receptors [5] | EC50 of ligand-induced BRET (Luc/YFP on the two ß-subunits) of partially purified receptors [6] | EC50 of ligand-induced BRET (Luc/YFP on the two ß-subunits) of partially purified receptors [7] | EC50 of ligand-induced BRET (Luc/YFP on the two ß-subunits) of partially purified receptors [8] | EC50 of PIP3 production (BRET, Luc-Akt-PH and membrane YFP) in living MDA-MB231 cells [9] | Substance
13.8 nM | 6.31 nM | 315 nM | 169 nM |  |  |  |  |  | Glargine metabolite M2 (A21Gly,B30desThr-insulin) (ligand)
 |  |  |  | 5.13 nM | 5.24 nM | 335 nM | 175 nM | 2.3 nM | detemir (B29Lys(e-tetradecanoyl),desB30)-insulin) (ligand)
